Laboratory results as given in the Immune Epitope Database (IEDB).

How the values were obtained:
HLA-A*02:07 = assay: IEDB peptide-MHC binding, purified MHC/competitive/radioactivity; filed as Kd, often an IC50 or EC50 that approximates it; ≥ and ≤ were set here for values at or beyond the usual limits of such assays
HLA-A*02:01 = assay: as above
[1] = source organism: Hepatitis B virus
[2] = source organism: Hepatitis B virus adr4
[3] = source organism: Mycobacterium tuberculosis

Row | Sequence | Kd (HLA-A*02:07; source organism: Homo sapiens) [nM] | Kd (HLA-A*02:01; source organism: Homo sapiens) [nM] | also measured
1 | AAPLILSRI | 6640 | ≥ 30000 | –
2 | ALAETSYVKV | ≥ 23300 | – | –
3 | ALDVYNGLL | 5970 | 96 | –
4 | CILESLFRA | 6480 | 68 | –
5 | GMPEGDLVYV | 1400 | – | –
6 | ILKEPVHGV | – | – | Kd (HLA-A*02:07; source organism: HIV-1 M:B_MN): ≥ 30000 nM
7 | KLPQLCTEL | – | – | Kd (HLA-A*02:07; source organism: Human papillomavirus 16): 2660 nM
8 | LLFFWLDRSV | ≥ 30000 | – | –
9 | LLPFVQWFV | – | – | Kd (HLA-A*02:07; [1]): 88 nM; Kd (HLA-A*02:01; [1]): 8.6 nM
10 | LLWKGEGAVV | – | – | Kd (HLA-A*02:07; source organism: HIV-1 M:B_MN): 4150 nM; Kd (HLA-A*02:01; source organism: HIV-1 M:B_MN): 111 nM
11 | LTDAVKVMDL | ≥ 30000 | ≥ 30000 | –
12 | LVPFVQWFV | – | – | Kd (HLA-A*02:07; [2]): 2530 nM
13 | NLDRSNDKV | ≥ 30000 | ≥ 30000 | –
14 | QIPSYKKLI | ≥ 30000 | ≥ 30000 | –
15 | QLDPARDVL | – | – | Kd (HLA-A*02:07; [2]): ≥ 30000 nM
16 | RLPLVLPAV | – | – | Kd (HLA-A*02:07; [3]): 8.9 nM; Kd (HLA-A*02:01; [3]): 5.2 nM
17 | RMPEAAPPV | 548 | – | –
18 | SLDLASLIL | 1560 | 1610 | –
19 | SLDSWWTSV | – | – | Kd (HLA-A*02:07; [1]): 236 nM; Kd (HLA-A*02:01; [1]): 50 nM
20 | TLPSWATEDT | ≥ 30000 | ≥ 30000 | –
21 | WVDLRSLFL | – | – | Kd (HLA-A*02:07; source organism: HIV-1 M:B_MN): ≥ 26900 nM; Kd (HLA-A*02:01; source organism: HIV-1 M:B_MN): 16700 nM
22 | YLDLALMSV | – | – | Kd (HLA-A*02:07; [3]): 44 nM; Kd (HLA-A*02:01; [3]): 5.6 nM
23 | YLQLVFGIEV | 1050 | – | –
24 | YMDDVVLGV | – | – | Kd (HLA-A*02:07; [1]): 92 nM
25 | YTAFTIPSI | – | – | Kd (HLA-A*02:07; source organism: HIV-1 M:B_MN): ≥ 30000 nM
